Assay results from publication PMC9674830 (2022).
Positions of bridges follow the written chain, without caps; N, C: chain ends. Non-standard residues stand in square brackets, D forms with d. No end group written: not given here. pentenylalanine = pentenylalanine, unnatural amino acid di-substituted at Cα, crosslinked by ring-closing metathesis

B1: C-terminal domain of subunit 1 of the general transcription regulator TFIIF (RAP74-CTD) (domain or fragment)
chain: GDVQVTEDAVRRYLTRKPMTTKDLLKKFQTKKTGLSSEQTVNVLAQILKRLNPERKMINDKMHFSLKE

Key:
[1] = target: B1; experiment: NMR
γCtrl = experiment: NMR
[2] = target: B1; experiment: ITC

Kd [1] | Binder | other results
> 1000 µM | KKPGASAAAAQE[pentenylalanine]QLA[pentenylalanine]LAQELQAAQAAKKY (staple 13-17) [peptide δ_(Stpl)] | 
> 1000 µM | SAAASSSWHTLFTAEEGQLYG [AR-WHTLF peptide] | 
> 1000 µM | KKPGASLAALQALQALQALQALQAAQAAKKY [peptide (P3-7)3] | 
 | B1 | Kd (γCtrl): > 1000 µM
626 µM | KKPGASLSWLQLFQEEQAAQAAKK (designed binder) [peptide γ] | 
 | KKPGASLAALQELQLLQLLQELQAAQAAKKY (designed binder) [peptide δ] | Kd [2]: 256 µM
202 µM | KKPGASASW[pentenylalanine]QLF[pentenylalanine]EEQAAQAAKK (staple 10-14) [peptide γ_(Stpl)] | 
> 1000 µM | KKPGASLAALQALQALQAAQAAKKY [peptide (P3-7)2] | 
> 1000 µM | KKPGASAAAAQEAQLAQLAQELQAAQAAKKY [peptide δ_(ctrl)] | 
